Test results from US20110135634A1, “METHODS OF INHIBITING INFECTION BY DIVERSE SUBTYPES OF DRUG-RESISTANT HIV-1” (priority 2007, published 2011).
Values joined by “and” are separate entries in the source; they are usually repeats but may differ in a detail not shown here. Identical values can stand only once.

Key:
[1] = single administration of TAK-652 solution, healthy male volunteers; cited from earlier work
[2] = in vivo; cited from earlier work
[3] = molecular target: CCR5 (CC-chemokine receptor 5) (human) (UniProt P51681); test: displacement of labelled ligand; PRO 140 pre-incubated with CEM.NKR-CCR5 cells, then 2 nM 3H-UK-427,857 (small molecule) as competitor; scintillation counting
[4] = molecular target: CCR5 (CC-chemokine receptor 5) (human) (UniProt P51681); test: cell-based or functional assay
[5] = molecular target: CCR5 (CC-chemokine receptor 5) (human) (UniProt P51681); test: flow cytometry competition; unlabeled PRO 140 pre-incubated with CEM.NKR-CCR5 cells, then 5 nM PRO 140-PE as competitor; percent cells gated read-out
[6] = molecular target: CCR5 (CC-chemokine receptor 5) (human) (UniProt P51681); test: flow cytometry competition; unlabeled PRO 140 pre-incubated with CEM.NKR-CCR5 cells, then 5 nM PRO 140-PE as competitor; MFI read-out

CCCCOCCOc1ccc(-c2ccc3c(c2)/C=C(/C(=O)Nc2ccc([S@@+]([O-])Cc4cncn4CCC)cc2)CCCN3CC(C)C)cc1.CS(=O)(=O)O [TAK-652]
safety and tolerability [1]: safe and well tolerated | oral bioavailability [2]: orally bioavailable

B1: PRO 140, humanized IgG4,κ anti-CCR5 monoclonal antibody (antibody, INN chains, looked up, V domains shown)
VH: EVQLVESGGGLVKPGGSLRLSCAASGYTFSNYWIGWVRQAPGKGLEWIGDIYPGGNYIRNNEKFKDKTTLSADTSKNTAYLQMNSLKTEDTAVYYCGSSFGSNYVFAWFTYWGQGTLVTVSS
VL: DIVMTQSPLSLPVTPGEPASISCRSSQRLLSSYGHTYLHWYLQKPGQSPQLLIYEVSNRFSGVPDRFSGSGSGTDFTLKISRVEAEDVGVYYCSQSTHVPLTFGQGTKVEIK
EC50 [3]: 14 nM | IC50, HIV-1 reporter virus pseudotyped with JRFL envelope, U87-CD4-CCR5 cells [4]: 2.2 nM | IC50, HIV-1 reporter virus pseudotyped with SF162 envelope, U87-CD4-CCR5 cells [4]: 1.3 nM | IC50, PhenoSense HIV Entry assay, U87-CD4/CCR5 cells, virus DUAL [4]: 0.347 µg/mL | IC50, PhenoSense HIV Entry assay, U87-CD4/CCR5 cells, virus JRCSF [4]: 0.574 µg/mL | IC50, PhenoSense HIV Entry assay, U87-CD4/CCR5 cells, virus Panel 1 (subtype A) [4]: 0.199 µg/mL | IC50, PhenoSense HIV Entry assay, U87-CD4/CCR5 cells, virus Panel 2 (subtype A) [4]: 0.305 µg/mL | IC50, PhenoSense HIV Entry assay, U87-CD4/CCR5 cells, virus Panel 3 (subtype A) [4]: 0.414 µg/mL | IC50, PhenoSense HIV Entry assay, U87-CD4/CCR5 cells, virus Panel 4 (subtype A) [4]: 0.508 µg/mL | IC50, PhenoSense HIV Entry assay, U87-CD4/CCR5 cells, virus Panel 5 (subtype C) [4]: 0.356 µg/mL | IC50, PhenoSense HIV Entry assay, U87-CD4/CCR5 cells, virus Panel 6 (subtype C) [4]: 0.318 µg/mL | IC50, PhenoSense HIV Entry assay, U87-CD4/CCR5 cells, virus Panel 7 (subtype C) [4]: 0.0955 µg/mL | IC50, PhenoSense HIV Entry assay, U87-CD4/CCR5 cells, virus Panel 8 (subtype C) [4]: 0.527 µg/mL | IC50, PhenoSense HIV Entry assay, U87-CD4/CCR5 cells, virus Panel 9 (subtype D) [4]: 0.679 µg/mL | IC50, PhenoSense HIV Entry assay, U87-CD4/CCR5 cells, virus Panel 10 (subtype D) [4]: 0.59 µg/mL | IC50, PhenoSense HIV Entry assay, U87-CD4/CCR5 cells, virus Panel 11 (subtype D) [4]: 0.365 µg/mL | IC50, PhenoSense HIV Entry assay, U87-CD4/CCR5 cells, virus Panel 12 (subtype D) [4]: 0.238 µg/mL | IC50, PhenoSense HIV Entry assay, U87-CD4/CCR5 cells, virus Panel 13 (subtype F) [4]: 0.788 µg/mL | IC50, PhenoSense HIV Entry assay, U87-CD4/CCR5 cells, virus Panel 14 (subtype F) [4]: 0.657 µg/mL | IC50, PhenoSense HIV Entry assay, U87-CD4/CCR5 cells, virus Panel 15 (subtype F) [4]: 0.332 µg/mL | IC50, PhenoSense HIV Entry assay, U87-CD4/CCR5 cells, virus Panel 16 (subtype F) [4]: 0.342 µg/mL | IC50, PhenoSense HIV Entry assay, U87-CD4/CCR5 cells, virus Panel 17 (subtype G) [4]: 0.26 µg/mL | IC50, PhenoSense HIV Entry assay, U87-CD4/CCR5 cells, virus Panel 18 (subtype G) [4]: 1.43 µg/mL | IC50, PhenoSense HIV Entry assay, U87-CD4/CCR5 cells, virus Panel 19 (subtype G) [4]: 0.384 µg/mL | IC50, PhenoSense HIV Entry assay, U87-CD4/CCR5 cells, virus Panel 20 (subtype G) [4]: 0.432 µg/mL | IC50, PhenoSense HIV Entry assay, U87-CD4/CCR5 cells, virus Panel 21 (subtype J) [4]: 0.525 µg/mL | IC50, PhenoSense HIV Entry assay, U87-CD4/CCR5 cells, virus Panel 22 (subtype J) [4]: 0.436 µg/mL | IC50, PhenoSense HIV Entry assay, U87-CD4/CCR5 cells, virus Panel 23 (subtype J) [4]: 0.269 µg/mL | IC50, PhenoSense HIV Entry assay, U87-CD4/CCR5 cells, virus Panel 24 (subtype B) [4]: 0.547 µg/mL | IC50, PhenoSense HIV Entry assay, U87-CD4/CCR5 cells, virus Panel 25 (subtype B) [4]: 0.519 µg/mL | IC50, PhenoSense HIV Entry assay, U87-CD4/CCR5 cells, virus Panel 26 (subtype B) [4]: 0.442 µg/mL | IC50, PhenoSense HIV Entry assay, U87-CD4/CCR5 cells, virus Panel 27 (subtype B) [4]: 0.575 µg/mL | IC50, PhenoSense HIV Entry assay, U87-CD4/CCR5 cells, virus Panel 31 JRCSF-N43D [4]: 0.67 µg/mL | IC90, HIV-1 reporter virus pseudotyped with JRFL envelope, U87-CD4-CCR5 cells [4]: 28 nM | IC90, HIV-1 reporter virus pseudotyped with SF162 envelope, U87-CD4-CCR5 cells [4]: 20 nM | IC90, PhenoSense HIV Entry assay, U87-CD4/CCR5 cells, virus DUAL [4]: 1.56 µg/mL | IC90, PhenoSense HIV Entry assay, U87-CD4/CCR5 cells, virus JRCSF [4]: 18.3 µg/mL | IC90, PhenoSense HIV Entry assay, U87-CD4/CCR5 cells, virus Panel 1 (subtype A) [4]: 1.69 µg/mL | IC90, PhenoSense HIV Entry assay, U87-CD4/CCR5 cells, virus Panel 2 (subtype A) [4]: 4.51 µg/mL | IC90, PhenoSense HIV Entry assay, U87-CD4/CCR5 cells, virus Panel 3 (subtype A) [4]: 3.38 µg/mL | IC90, PhenoSense HIV Entry assay, U87-CD4/CCR5 cells, virus Panel 4 (subtype A) [4]: 3.45 µg/mL | IC90, PhenoSense HIV Entry assay, U87-CD4/CCR5 cells, virus Panel 5 (subtype C) [4]: 6.52 µg/mL | IC90, PhenoSense HIV Entry assay, U87-CD4/CCR5 cells, virus Panel 6 (subtype C) [4]: 3.37 µg/mL | IC90, PhenoSense HIV Entry assay, U87-CD4/CCR5 cells, virus Panel 7 (subtype C) [4]: 0.447 µg/mL | IC90, PhenoSense HIV Entry assay, U87-CD4/CCR5 cells, virus Panel 8 (subtype C) [4]: 7.25 µg/mL | IC90, PhenoSense HIV Entry assay, U87-CD4/CCR5 cells, virus Panel 9 (subtype D) [4]: 15.3 µg/mL | IC90, PhenoSense HIV Entry assay, U87-CD4/CCR5 cells, virus Panel 10 (subtype D) [4]: 5.65 µg/mL | IC90, PhenoSense HIV Entry assay, U87-CD4/CCR5 cells, virus Panel 11 (subtype D) [4]: 4.33 µg/mL | IC90, PhenoSense HIV Entry assay, U87-CD4/CCR5 cells, virus Panel 12 (subtype D) [4]: 2.08 µg/mL | IC90, PhenoSense HIV Entry assay, U87-CD4/CCR5 cells, virus Panel 13 (subtype F) [4]: 16.7 µg/mL | IC90, PhenoSense HIV Entry assay, U87-CD4/CCR5 cells, virus Panel 14 (subtype F) [4]: 21.9 µg/mL | IC90, PhenoSense HIV Entry assay, U87-CD4/CCR5 cells, virus Panel 15 (subtype F) [4]: 5.88 µg/mL | IC90, PhenoSense HIV Entry assay, U87-CD4/CCR5 cells, virus Panel 16 (subtype F) [4]: 14 µg/mL | IC90, PhenoSense HIV Entry assay, U87-CD4/CCR5 cells, virus Panel 17 (subtype G) [4]: 2.41 µg/mL | IC90, PhenoSense HIV Entry assay, U87-CD4/CCR5 cells, virus Panel 18 (subtype G) [4]: 50.7 µg/mL | IC90, PhenoSense HIV Entry assay, U87-CD4/CCR5 cells, virus Panel 19 (subtype G) [4]: 3.51 µg/mL | IC90, PhenoSense HIV Entry assay, U87-CD4/CCR5 cells, virus Panel 20 (subtype G) [4]: 5.65 µg/mL | IC90, PhenoSense HIV Entry assay, U87-CD4/CCR5 cells, virus Panel 21 (subtype J) [4]: 6.06 µg/mL | IC90, PhenoSense HIV Entry assay, U87-CD4/CCR5 cells, virus Panel 22 (subtype J) [4]: 9.24 µg/mL | IC90, PhenoSense HIV Entry assay, U87-CD4/CCR5 cells, virus Panel 23 (subtype J) [4]: 3.3 µg/mL | IC90, PhenoSense HIV Entry assay, U87-CD4/CCR5 cells, virus Panel 24 (subtype B) [4]: 10.1 µg/mL | IC90, PhenoSense HIV Entry assay, U87-CD4/CCR5 cells, virus Panel 25 (subtype B) [4]: 12.2 µg/mL | IC90, PhenoSense HIV Entry assay, U87-CD4/CCR5 cells, virus Panel 26 (subtype B) [4]: 8.91 µg/mL | IC90, PhenoSense HIV Entry assay, U87-CD4/CCR5 cells, virus Panel 27 (subtype B) [4]: 6.5 µg/mL | IC90, PhenoSense HIV Entry assay, U87-CD4/CCR5 cells, virus Panel 31 JRCSF-N43D [4]: 16.1 µg/mL | IC90, neutralization of primary R5 HIV-1 isolates, whole virus replication assay [4]: 3 µg/mL and 4 µg/mL | EC90 [5]: 17 nM | EC50 [6]: 2.5 nM
